From patent US20250215105A1, “ANTI-CD39 ANTIBODY” (BrightPath Biotherapeutics Co., Ltd., priority 2022, published 2025) come the findings set out here.

The target of assay [1] is T1, human CD39 (Homo sapiens, UniProt P49961).
T1 sequence (P49961 1-510): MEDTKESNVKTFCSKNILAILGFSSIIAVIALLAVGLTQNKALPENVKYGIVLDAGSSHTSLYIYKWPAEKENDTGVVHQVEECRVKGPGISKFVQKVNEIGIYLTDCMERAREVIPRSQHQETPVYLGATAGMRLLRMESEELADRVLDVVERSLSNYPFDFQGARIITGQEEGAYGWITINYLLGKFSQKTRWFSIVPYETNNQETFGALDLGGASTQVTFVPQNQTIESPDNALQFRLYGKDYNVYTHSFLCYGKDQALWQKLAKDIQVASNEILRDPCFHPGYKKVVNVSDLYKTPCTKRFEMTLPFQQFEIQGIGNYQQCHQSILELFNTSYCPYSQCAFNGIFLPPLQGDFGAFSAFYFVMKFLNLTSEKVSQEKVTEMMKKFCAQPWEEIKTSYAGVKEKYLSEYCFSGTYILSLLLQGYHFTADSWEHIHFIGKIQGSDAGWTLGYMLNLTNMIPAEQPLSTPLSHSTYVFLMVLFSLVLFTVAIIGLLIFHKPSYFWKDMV
As to the kind of experiment: activity to inhibit CD39 enzyme (ATP hydrolysis by CD39-expressing cells, CellTiter-Glo). More on the design: CD39^hi-expressing human melanoma cell line SK-MEL-28 (ATCC, HTB-72) or human ovarian adenocarcinoma cell line OAW-42; endogenous in cells; host or cells: SK-MEL-28 (ATCC, HTB-72) or OAW-42 (CLS, 300304). The format is cell-based. To be noted: SK-MEL-28 or OAW-42 cells, ATP 10 μM. How it is done:
Two thousand SK-MEL-28 cells (ATCC, HTB-72), a CD39′-expressing line, suspended in 50 μl EMEM (Fujifilm, 055-08975) were seeded onto a 96-well V-bottom plate and incubated at 37° C. for 30 minutes with 150 μl of culture supernatant of single B cells. The cells were washed once with DPBS (Nacalai Tesque, 14249-24), then 100 μl of 5 μM ATP was added per well, and the mixture was incubated at 20° C. for 30 minutes. After centrifugation, 50 μl of the supernatant was separated, 50 μl CellTiter-Glo (Promega, G9243) was added and stirred, and after incubation at room temperature for 10 min, the amount of ATP was measured by chemiluminescence while using a microplate reader. The ability of B cell culture supernatant to inhibit CD39-mediated ATP hydrolysis was evaluated based on the amount of residual ATP.
The antibodies obtained in the above experiments were used to measure activity to inhibit CD39 enzyme by using the following procedure. […] After centrifugation, 50 μl of the supernatant was separated, 50 μl CellTiter-Glo was added and stirred, and after incubation at room temperature for 10 minutes, the level of chemiluminescence was measured using a microplate reader. Based on the amount of ATP consumed by SK-MEL-28 or OAW-42 cells, the ability of the antibody to inhibit CD39-mediated ATP hydrolysis was evaluated. […]

In assay [2] the test system is human lung cancer cell line NCI-H292. As to the kind of experiment: anti-tumor activity: NCI-H292 growth with stimulated PBMCs and ATP (IncuCyte). It counts as cell-based. As to conditions: NCI-H292 with PBMCs E/T 2, ATP 500 μM. How it is done:
The human lung cancer cell line NCI-H292 having red fluorescent protein (RFP) was seeded on a 96-well plate and cultured overnight. The next day, after removal of the medium, IL-2 (Miltenyi, 130-097-745) at a final concentration of 30 IU as suspended in X-VIVO-15™ medium (Lonza, 04-418Q) and an anti-human CD39 antibody or isotype control antibody at a final concentration of 0.3 to 100 μg/mL were added and the mixture was incubated at 37° C. for 30 minutes. Then, PBMCs from healthy volunteers stimulated with Dynabeads™ Human T-Activator CD3/CD28 (VERITAS, DB11131) for 10 days were added at an E/T ratio of 2 and the mixture was incubated at 37° C. for 30 minutes. […] This made it possible to evaluate the anti-tumor activity of the antibody due to its ability to promote the cytotoxic activity of PBMCs.

The target in another assay is T2, Human CD39 antigen (Homo sapiens, UniProt P49961).
T2 sequence (P49961 1-510): T1 sequence (P49961 1-510)
As to the kind of experiment: affinity by surface plasmon resonance (SPR) analysis. As to conditions: Biacore 8K, 1:1 binding model. On the procedure:
Kinetics of each antibody against their target antigen were measured using Biacore 8K (Cytiva). Each antibody to be measured was immobilized on a sensor chip (CM5) using a Mouse Antibody Capture Kit, type 2 (Cytiva, 29215281) for mouse antibodies and a Human Antibody Capture Kit, Type 2 (Cytiva, 26234600) for chimeric and humanized antibodies, respectively. Human CD39 antigen was subjected to 4-step dilution from […] to prepare each solution, the contact time was set to 120 seconds, the dissociation time was set to 600 seconds, and the flow rate was set to 30 μl/min. Under these conditions, HBS-EP+ was used as the running buffer, and each sample was then analyzed using the 1:1 binding model of multi-cycle kinetics.
In general terms: Surface plasmon resonance follows binding to a sensor surface in real time, without labels.

The next assay concerns Cynomolgus monkey CD39. As to the kind of experiment: CD39 binding analysis (FCM) using Cynomolgus monkey CD39-overexpressing cells. To be noted: 293T-cynoCD39 cells, 2 μg/ml antibody. On the procedure: Binding to target antigen-expressing cells was analyzed using Cynomolgus monkey CD39-overexpressing cells. This analysis was used to check cross-reactivity. The Cynomolgus monkey CD39-overexpressing cells were generated using a lentiviral vector system (OriGene, PS100069). Lentiviral particles carrying the Cynomolgus monkey CD39 gene (Gene ID: 102132860) as the target gene together with the puromycin resistance gene were generated and used to infect HEK293T cells therewith. Then, the cells were cultured in the presence of puromycin. HEK293T cells (293T-cynoCD39) in which the target gene was integrated into the genome and which became positive for Cynomolgus monkey CD39 were collected and used for FCM analysis. The cells were reacted with 2 μg/ml test antibody or isotype control antibody, stained with a fluorescence-labeled secondary antibody, and evaluated for antibody binding based on the fluorescence intensity obtained by flow cytometry analysis.

Assay [3] has as its target T1, human CD39. As to the kind of experiment: CD39 binding analysis (FCM) using human CD39-overexpressing cells. As to conditions: 293T-hCD39 or Jurkat-hCD39 cells. On the procedure: 3.1 CD39 binding analysis (FCM analysis) (using human CD39) Binding to target antigen-expressing cells was analyzed by FCM analysis using human CD39-overexpressing cells. The human CD39-overexpressing cells were generated using a lentiviral vector system (OriGene, PS100069). Lentiviral particles carrying the human CD39 gene (Gene ID: 953) as the target gene together with the puromycin resistance gene were generated and used to infect HEK293T or Jurkat cells therewith. Then, the cells were cultured in the presence of puromycin. HEK293T or Jurkat cells ([…] or Jurkat-hCD39) in which the target gene was integrated into the genome and which became positive for human CD39 were collected and used for FCM analysis. Test or isotype control antibodies at a final concentration of 2 μg/mL or at the concentrations indicated in the figure were reacted with 1×10^5 cells for 15 minutes at 4° C., followed by washing twice with 0.5% BSA, 2 mM EDTA, and D-PBS. After washing, a fluorescent-labeled secondary antibody (anti-human IgG Fc, HP6017) was added, and the cells were stained at 4° C. for 15 minutes under light-shielded conditions, followed by washing twice in a similar manner. After addition of 7AAD (BioLegend, 420404), fluorescence intensity was measured using a flow cytometer (FACSVerse, BD). Antibody binding was evaluated based on the fluorescence intensity obtained.

B1: HuP4_IB_sc: humanized scFvFc obtained by humanizing P4_sc (antibody, V domains shown)
VH: QVQLLESGPELVKPSATLSITCTVSGFSLTNYGVHWIRQAPGKGLEWLGVILRRGSTDYNAAFMSRFTISKDNSKNQVYFKLRSVTAEDTAVYYCAKTAVVAGDYFDYWGQGTMVTVSS
VL: DIQMTQSHSTLSLSVGDRVTITCKASQNVGTNVAWYQQKPGQPPKALIYSASYRYSGVPSRFSGSGSGTDFTLTISSVQAEDVAVYYCQQYNSYPLTFGPGTKLEIK
modifications: left off: another chain or arm of the molecule; a dimerising Fc or GST; small tags and cut ends
notes: humanized scFvFc obtained by humanizing P4_sc
Turning to B1, the CD39 inhibitory activity result with human CD39 [1] is recorded as “favorable CD39 inhibitory activity”.

B2: T-31414h1lala: anti-CD39 antibody with variable regions described in US2019/0062448, IgG1-lala constant region (antibody, V domains shown)
VH: QVQLVQSGAEVKKPGASVKVSCKASGYTFKSYEMHWVRQAPGQGLEWMGRINPSVGSTWYAQKFQGRVIMIRDTSTSTVYMELSSLRSEDTAVYYCARGKREGGTEYLRNWGQGTLVTVSS
VL: EIVLIQSPGILSLSPGERATLSCRASQSVSSSYLAWYQQKPGQAPRLLIYGASSRATGIPDRFSGSGSGTDFTLTISRLEPEDFAVYYCQQYHSYITFGGGTKVEIK
modifications: IgG1 LALA constant regions; T-31414 VH; T-31414 VL
notes: anti-CD39 antibody with variable regions described in US2019/0062448, IgG1-lala constant region
Regarding B2, the “growth rate of cancer cells” value in assay [2] is “approximately 0.9”.

B3: P4_sc: anti-CD39 scFvFc (Fc silent) from phage display (antibody, V domains shown)
VH: QVQLKESGPSLVQPSQSLSITCTVSGFSLTNYGVHWVRQSPGKGLEWLGVILRRGSTDYNAAFMSRLSITKDNSKSQVFFKMNSLQADDTAIYYCAKTAVVAGDYFDYWGQGTTLTVSS
VL: DIVMTQSHKFMSTSVGDRVSVTCKASQNVGTNVAWYQQKPGQSPKALIYSASYRYSGVPDRFTGSGSGTDFTLTISNVQSEDLAEYFCQQYNSYPLTFGTGTKLEIK
modifications: left off: another chain or arm of the molecule; a dimerising Fc or GST; small tags and cut ends
notes: anti-CD39 scFvFc (Fc silent) from phage display
Consider B3, for which the “affinity for human CD39 (KD)” value in the assay with Human CD39 antigen was “favorable affinity”. In the assay with human CD39 [1], the CD39 inhibitory activity entry is given as “activity to inhibit human CD39”. Moreover, in the assay with Cynomolgus monkey CD39, the “binding to monkey CD39” value is “bound to monkey CD39”. Moreover, the “affinity for human CD39 on the cell surface” value with human CD39 [3] was “favorable affinity”.
